Laboratory results as given in the nanobody polyreactivity screen of Harvey et al. (2022).

Assay: yeast display, Sf9 membrane polyspecificity reagent, FACS + sequencing; frameworks hold sequencing errors
Procedure, shortened: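 In a synthetic yeast display library (Saccharomyces cerevisiae BJ5465), nanobody expression was induced with galactose for 36–48 hours. FACS gates were set low and high (top ~1%) using anti-HA fluorescence for expression and streptavidin fluorescence for binding of the Sf9 membrane reagent. Each polyreactivity label is drawn from the gate of origin.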
In the case of “QVQLVESGGGLVQAGGSLRLSCAASGFIFYAYAMGWYRQAPGKERELVAAITSSGSRTYYADSVKGRFTISRDNAKNTVYLQMNSLKPEDTAVYYCNARSGGVRYSNIGTEKYDYWGQGTQVTVSS”, the “polyreactivity (PSR sort gate)” value is reported as “low polyreactivity”. With “QVQLVESGVGLVQAGGSLRLSCAASGFIFPYYTMGWYRQAPGKERELVAAISASSGRTYYADSVKGRFTISSDNAKNTVYLQMNSLKPEDTAVYYCAAKTYEPRKYEYWGQGTQVTVSS” the “polyreactivity (PSR sort gate)” value was “high polyreactivity”. In the case of “QVQHVESGGGLVQAGGSLRLSCAASGRIFSFYVMGWYRQAPGKERELVAVIRKNGGSTYYADSVKGRFTISRDNAKNTVYLQMNSLKPEDTAVYYCTARSVPRYGYWGLGTQVTVSS”, the “polyreactivity (PSR sort gate)” value is reported as “high polyreactivity”. For “QVQLVESGGGLVQAGGSLRLSCAASGFIFERNAMGWYRQAPGKERELVAGISNNGGSTYYADSVKGRFTISRDNAKNTVYLQMNSLKPEDTAVYYCARDPNDDNSFPYDYWGQGTQVTVSS”, the “polyreactivity (PSR sort gate)” value was “low polyreactivity”. For “QVQRVESGGGLVQAGGSLRLTCAASGRTFPGYAMGCYRQAPGKERELVAGISYRGGSTYYADSVKGRFTISRDNANNTVYLQMNSLKPEDSAVYYCALDYSRHKGDYWGQGTQVTVSS”, the “polyreactivity (PSR sort gate)” value was “low polyreactivity”. For “QVQLVESGGGLVQAGGSLRLSCAASGYIIGRYVMGWYRQAPGNERELVAAITASGGSTNYADSVKGRFTISRDNAKNTVYLQMNSLKPEDTAVYYCAADYSWYYFDFEYWGQGTQVTVSS”, the “polyreactivity (PSR sort gate)” value was “high polyreactivity”. For “QVQLVESGGGLVQAGGSLRLSCAASGFNIGRNAMGWYRQAPGKERELVAGISISGGSTYYADSVKGRFTISRDNAKNTVYLQMNSLKPEDTAVYYCAAEYAYSLDPEEDYWGQGTQVTVSS”, the “polyreactivity (PSR sort gate)” value was “high polyreactivity”. In the case of “QVQLVESGGGLVQAGGSLRLSCAASGSTFRPYAMGWYRQAPGKEMELVARMTGSGDSTYYADSVKGRFTISRDNAKNTVYLQMNSLKPEDTAVYYCNALYTSLRKYNYWGQGTQVTVSS”, the “polyreactivity (PSR sort gate)” value is reported as “low polyreactivity”. With “QVQLVESGGGLVQAGGSLRLSCAASGNTFVPYAMGWYRQAPGKERELVAAITFSAGRTYYADSVKGRFTISRDNAKNTVYLQMNSLKPEDTAVYYCNVYWYNNYRGYYYWGQGTQVTVSS” the “polyreactivity (PSR sort gate)” value was “high polyreactivity”. With “QVQLVESGGGLVQAGGSLRLSCAASGFIYYYNAMGWYSQAPGKERELVAAISSRGTSTYYADSVKGRFTISRENAKNTVYLQMNSLKPEDTAVYYCNALGNFGMDYWGQGNQVTVSS” the “polyreactivity (PSR sort gate)” value was “high polyreactivity”. In the case of “QVQLVESGGGLVQAGGSLRLSCAASGSTFYLYARGWFSQAPGKVRELGAAIRTSGGSTYYADSGKGRFTISRDTAKNTVYLQMNSLKPEDTAVYSCTAAWPYNSVEYWGQGTQVTVSS”, the “polyreactivity (PSR sort gate)” value is reported as “low polyreactivity”. In the case of “QVQLVESGGGLVHAGGTLRLSCAASGGIFYHYTMGWYRQAPGKERELVASIRVSGGRTYNADSVTGRFTISRDNAKNTVYLQMNSLKPQDSAVYFCNARGSWYQPTYDYWGQGTQVTVSS”, the “polyreactivity (PSR sort gate)” value is reported as “high polyreactivity”. For “QVQLVESGGGLVQAGGSLRLSCAASGFTFTTYVMGWYRQAPGKERELVAAISRRGTSTRYADSVKGRFTISRDNAKNTVYLQMNSLKPEDTAVYYCAADRPYSIVPYDYWGQGTQVTVSS”, the “polyreactivity (PSR sort gate)” value was “high polyreactivity”. In the case of “QVQLVESGGGLVQAGGSLRLSCAASGSTYYYYAMGSYRPAPGKERELVAAINTSGGITYYADSVKGRFTISRDNAKNTVYLQMNSLKPEDTAVYYCAARNRSYCGTFGSYNYDYWGQGTQVTVSS”, the “polyreactivity (PSR sort gate)” value is reported as “high polyreactivity”. For “QVQLEESGGGLVQAGGSLRLSCAASGITLGYYAMGWYRPAPGKERELVAAITWSGTSTYYADSVKGRFTISRDNAKNTVYLQMNSLKPEDTADYYCAAGFISQYQERGYWGQGTQVTVSS”, the “polyreactivity (PSR sort gate)” value was “low polyreactivity”. In the case of “QVQLVESGGGLVQAGGRLRLSCAASGIFGYNALGWYRQAPGKERELVAAITSSGTSTYYADSVKGRFTISRDNAKNTVYLQMNSLKPEDTAVYYCAALHSGTWTGYGYWGQGTQVTVSS”, the “polyreactivity (PSR sort gate)” value is reported as “low polyreactivity”. With “QVQLVESAGGLVQAGASLRLSCAASGGTSPVYAMGWYRQAPGKERELVAAIRYSGGRTNYADSVKGRFTISRDNAKNTVYLQMNSLKPEDTAVYYCAARGYRYQGDYWGQGTQVTVSS” the “polyreactivity (PSR sort gate)” value was “high polyreactivity”. For “QVQLVETGGGLVQAGGSLRLSCAASGFIFSYNAMGWYRQAPGKERELVASISRADSTNYADSVKGRFTISRDNAKNTVYLQMNSLKPEDTAVYYCAKKGRTARRLYSFDYWGQGTQVTVSS”, the “polyreactivity (PSR sort gate)” value was “low polyreactivity”. For “QVQLVESGGGLVQAGGSLRLSCAASGSIFYHYAMGWYRQAPGKERELVAAISRSGGRTYYADSVKGRFTISRDNAKNTVYLQMNSLKPEDTAVYYCNKDYYYPNSWPKYDYWGQGTQVTVSS”, the “polyreactivity (PSR sort gate)” value was “low polyreactivity”. With “QVQLVESGGGLVHAGGSLRLSCAASGRIFGPYAMGWYRQAPGKERELVAAISRSGSTTYYAVSVKGRFTISRDNAKNTVYLQMNSLKPDDTAVYYCNGRRYRVVQSKPCDYWGQGTQVTVSS” the “polyreactivity (PSR sort gate)” value was “high polyreactivity”. In the case of “QVQLVESGGGLVQAGGSLRLSCAGSGIIFAWYAMGWYRQAPGKERELVAAITSGGGSTYYADSVKGRFTISRDNAKNTVYLQMNSLKPEDTAVYYCAADYQTIGWGYDYWGQGTQVTVSS”, the “polyreactivity (PSR sort gate)” value is reported as “low polyreactivity”. In the case of “QVQLVESGGGLVQAGGSLRLSCAASGSTFRRYTMGWYRQAPGKERELVAAITWSGGSTYYADSVKGRFTISRDNAKNTVYLQMNSLKPEDTAVYYCAADRPYHTREYYYWGQGTQVNVSS”, the “polyreactivity (PSR sort gate)” value is reported as “low polyreactivity”. With “HVQLVESGGGLVQAGGSLRLSCAASGRIFSVYAMGWYRQAPGKEWEFVAAITTNGGSTYYADSVKGRFTISRDNAKNTVYLQMNSLKPEDTAVYYCAAYRSRVNGYRVDYWGQGTQVTVSS” the “polyreactivity (PSR sort gate)” value was “high polyreactivity”. For “QVQLVESGGGLVQAGGSLRLSCAASGRIFGDYGMGWYRQAPGKERELVAAITDRGGTTYYADSVKGRFTISRDNAKNTVYLQMNSLKPEDTAVYYCNARQSDIFDYDYWGQGTQVTVSS”, the “polyreactivity (PSR sort gate)” value was “low polyreactivity”. With “QVQLVESGGGLVQAGGSLRLSCAASGSIFYYYAMGWYRQAPGKERELVAAISSGGVRTYYADSVKGRFTISRDNAKNTVYLQMKSLKPEDTAVYYCAKDVHSGVTLIHERYYWGQGTQVTVSS” the “polyreactivity (PSR sort gate)” value was “low polyreactivity”. For “QDQLVDSGGGLVQAGGSLRLSCAASGFTFSLNTMGWYRQAPGKERELVAAINSGDSTYADSVKGRFTISRDNAKNTVYLQMNSLKPEETAVYYCNADPDWWYPYNYWGQGTQVTVSS”, the “polyreactivity (PSR sort gate)” value was “low polyreactivity”. With “QVQLEESAGGLVQAGGSLRLSCAASGIIFSGNAMGWYRQATGKERELVAAITLSGGSTYYADSVKGRFTISRDNAKNTVYLQMNSLKPEDTAVYYCNAVYDTIYSLRDIDTEYGSWGQGTQVTVSS” the “polyreactivity (PSR sort gate)” value was “low polyreactivity”. For “QVQLVESGGGLVQAGGSLRLSCAASGLTFYQNAMGWYRQAPGKEREFVASITRRGGRTYYADSVKGRFTISRDNAKNTVYLQMNSLKPEDTAVYYCAATFPQYQAIKEDYWGQGTQVTVSP”, the “polyreactivity (PSR sort gate)” value was “high polyreactivity”. In the case of “QVQLVESGGGLVQAGGSLRLSCAASGFTFGSNAMGWYRQAPGKERELVAAINYSGVRTYYADSVKGRFTISRDNAKNTVYLQMNSLKPEDTAVSYCAKKRSKPISFDYWGQGTQVTVSS”, the “polyreactivity (PSR sort gate)” value is reported as “high polyreactivity”. With “QVQLVESGGGLVQAGGSLRLSCAASGRTFWSNAMGWYRQAPGKERELVAAISTGAGSTYYADSVKGRFTISRDNAKNTVYLQMNSLKPEDTAVYYCAAVYNGALYNYYYWGEGTQVTVSS” the “polyreactivity (PSR sort gate)” value was “high polyreactivity”. For “QLQLEESGGGLVQAGGSLRLSCAASVRTLRRNAMGWYRQAPGKEKELVAAITGSGGSTYYADSVKGRFTISRDNAKNTVYLQMNSLKPEDTAVYYCAARGPSRRRDGSDYWGQGTQVTVSS”, the “polyreactivity (PSR sort gate)” value was “high polyreactivity”. In the case of “QVQLVESGGGLVQAGGSLRLSCAASGRTINRYAMGWYRQAPGKERELVAAISTSGGTTYYADSVKGRFTISRDNAKNTVYLQMNSLKPEDSAVYYCAAVARRGSYLGQRLDYWGQGTQVTVSS”, the “polyreactivity (PSR sort gate)” value is reported as “high polyreactivity”. In the case of “QDQLVESGGGLVQAGGSLRLSCAATGRIFERNAMGWYRQAPAKERELVARITSGGGTYYADSVKGRFTISRDNAKNTVYLQMNSLKPEDTAVYYCAVQYLYRKYRRYDYWGQGTQVTVSS”, the “polyreactivity (PSR sort gate)” value is reported as “high polyreactivity”. For “QVQLVESGGGLVQAGGSLRLSCADSGRILIGYTRGWYRQAPGKERELVARINYSGGSTYYADSVKGRFTISRDNAKNTVYLQMNSLKPEDTAVYYCAADVRRGYYTWPPRRVYYWGQGTQVTVSS”, the “polyreactivity (PSR sort gate)” value was “high polyreactivity”. With “QVQLVESGGGLVQAGGSLRLSCAASGSTFPHYAMGWYRQAPGKERELVAAISWSGSSTYYADSVKGRFTISRDNAKNTVYLQMNSLKPEDTAVYYCNKLPRRAPQFTYDYWGQGTQVTVSS” the “polyreactivity (PSR sort gate)” value was “high polyreactivity”. For “QVQLVESGGGLVQAGGSLRLSCAASGRTFRRNAMGWYRQAPGKEWELVADISNGDSTKYADSVKGRFTISRDNAKNTVYLQMNSLKPEDTAVYYCNAQRYRVVVYNSHGWQTRNYWGQGTQVTVSS”, the “polyreactivity (PSR sort gate)” value was “low polyreactivity”. In the case of “QVQLVESGGGLVQAGGSIRLSCAASGFIFNHYAMGWYRQAPVKEREFVAAISWSGTRTYYADSVKGRFTISRDNAKNTVYLQMNSLKPEDTAVYYCAADVWGPYDYWGQGTQVTVSS”, the “polyreactivity (PSR sort gate)” value is reported as “low polyreactivity”. In the case of “QVHLVESGGGLVQAGGSLRLSCAASGRIIRYNAMGWYRQAPGKERELDAAITRSGGSTYYADSVKGRFTISRDNAKNTVYLQMNSLKPEDTGVYYCAKVQNGQWSTSGVPGDYQYNYWGQATQVTVSS”, the “polyreactivity (PSR sort gate)” value is reported as “high polyreactivity”. In the case of “QVQLVDSGGGLVQAGASLPLSCAASGATFYIYARGWNIQAPGKERELVAANTWSGGRTFYADSVKGRFTMSRDNAKNTDYLQMNSLKPEDTAVYYCANRVRTGSVGNFNYWGQGTQVNVSS”, the “polyreactivity (PSR sort gate)” value is reported as “high polyreactivity”. In the case of “QVQLVESGGGLFQAGGSLRLSCAASGTTFVRYAMGCYRQAPGKDRQLVAAISSSGATTYYADSVKGRFTISRDNAKNTVYLQMNSLKPEDTEVYYCARLYVKRHGYWGQGSQVTVSS”, the “polyreactivity (PSR sort gate)” value is reported as “high polyreactivity”. In the case of “QVQLVESGGGLVQAGGSLRLSCAASGITLGYYVMGWYRQAPGKERELVAAISSSGGRTYYADSVKGRFTISRDTAKNTVYLQMNSLKPEDTAVYYCAADLGRGIYDYWGQGTQVTVSS”, the “polyreactivity (PSR sort gate)” value is reported as “low polyreactivity”. With “QVQLVESGGGLVQAGGSLRLSCAASGLIFSGYDMGWYRQAPGKERELVAAITWSGGRTYADSVKGRFTISRDNAKNTVYLQMNSLKPEDTAVYYCNADAYIDYWPYTWDYDYWGQGTQVTVSS” the “polyreactivity (PSR sort gate)” value was “high polyreactivity”. In the case of “LVQLVESGGGIVQAGGSLRLSCAASGLISQRNVMGWYRQAPGKERELVARISTSSSGTYYADSVKGRFTISRDNAKNTVYLQMNSLKPEDTAVYYCAKRWSPYYRLYSWGQGTQVTVSS”, the “polyreactivity (PSR sort gate)” value is reported as “high polyreactivity”.
